Molecular target: β-amyloid (Aβ) protein from brains of rTg9191 mice (human)
Assay: SDS-PAGE and Western blot under denaturing conditions; water-soluble fraction of brain extracts (three-step protocol); samples heated at 95°C with SDS and β-mercaptoethanol, 10-20% Tris-Tricine gels, immunoblot for Aβ; mice of 4, 12, 21, 24 and 26 months

Substance “β-amyloid (Aβ) protein from brains of rTg9191 mice (peptide)” has a stoichiometry N of 2.

— PMC4422728
